Assay [1] concerns the target TIGIT protein overexpressed on cells (Homo sapiens (Human)) (UniProt Q495A1). In words: flow cytometry on 293T-TIGIT cells, Alexa-647 anti-human Fc, MFI. A general note: Flow cytometry measures light scatter and fluorescence of single cells or particles in a stream.
The target of assay [2] is Cynomolgus monkey TIGIT-His tag fusion protein (cynomolgus monkey). In words: ELISA, cynomolgus TIGIT-His coated, HRP anti-human IgG, OD450. For orientation: An ELISA detects its analyte on a solid surface through an enzyme-linked reagent.
Chain of Cynomolgus monkey TIGIT-His tag fusion protein (cynomolgus monkey) (chain, as listed by the source): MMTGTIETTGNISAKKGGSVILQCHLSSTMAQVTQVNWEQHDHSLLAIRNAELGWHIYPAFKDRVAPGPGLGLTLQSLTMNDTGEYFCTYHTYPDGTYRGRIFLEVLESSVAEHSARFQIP

The EC50 (read off the curve) is the concentration giving half of the maximal effect.

Chain of TIGIT protein overexpressed on cells (Homo sapiens (Human)) (Q495A1 22-244): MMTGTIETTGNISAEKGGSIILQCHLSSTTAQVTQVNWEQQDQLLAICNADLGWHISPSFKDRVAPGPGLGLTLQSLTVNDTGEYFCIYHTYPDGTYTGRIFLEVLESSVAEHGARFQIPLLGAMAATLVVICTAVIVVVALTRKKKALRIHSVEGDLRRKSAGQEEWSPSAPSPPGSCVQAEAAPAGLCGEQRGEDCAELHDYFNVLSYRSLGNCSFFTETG

In the case of Tiragolumab analog (antibody), the EC50 (read off the curve) in assay [1] came out at 0.4 µg/mL; in assay [2], 0.08 µg/mL.

These data come from US20260103513A1.
